Experimental data published in publication PMC6420074 (Nature metabolism, 2019).

Columns and labels:
[1] = biological target: T1, extracellular domain of Tfr2 (Tfr2-ECD), recombinant His-MBP-c3-Tfr2-ECD (murine, UniProt Q9JKX3 103-798); test: SPR
T1 sequence: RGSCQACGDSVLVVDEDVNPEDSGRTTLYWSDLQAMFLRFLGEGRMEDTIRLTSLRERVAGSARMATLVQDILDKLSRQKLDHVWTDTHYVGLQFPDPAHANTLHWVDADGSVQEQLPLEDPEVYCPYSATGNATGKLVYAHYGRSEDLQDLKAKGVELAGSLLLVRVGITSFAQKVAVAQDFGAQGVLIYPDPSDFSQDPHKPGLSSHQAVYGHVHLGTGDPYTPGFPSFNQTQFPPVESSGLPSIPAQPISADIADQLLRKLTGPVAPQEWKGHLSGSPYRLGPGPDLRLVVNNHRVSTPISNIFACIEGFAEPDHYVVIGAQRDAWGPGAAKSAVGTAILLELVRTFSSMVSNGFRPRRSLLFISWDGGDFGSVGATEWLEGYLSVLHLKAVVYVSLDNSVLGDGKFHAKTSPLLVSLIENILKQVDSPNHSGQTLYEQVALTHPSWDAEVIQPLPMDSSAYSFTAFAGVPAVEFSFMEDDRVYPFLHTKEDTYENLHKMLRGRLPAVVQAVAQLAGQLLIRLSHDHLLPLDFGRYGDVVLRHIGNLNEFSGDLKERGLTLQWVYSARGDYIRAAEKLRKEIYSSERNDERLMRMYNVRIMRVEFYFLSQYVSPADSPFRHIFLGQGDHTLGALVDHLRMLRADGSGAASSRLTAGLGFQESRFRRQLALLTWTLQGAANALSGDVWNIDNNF

[2] = biological target: T1, extracellular domain of Tfr2 …; test: SPR; remark: listed apart in the source

| Binder | Kd [1] | fold binding level against holo-Tf [2] |
| --- | --- | --- |
| BMP-4 (ligand) SPKHHSQRARKKNKNCRRHSLYVDFSDVGWNDWIVAPPGYQAFYCHGDCPFPLADHLNSTNHAIVQTLVNSVNSSIPKACCVPTELSAISMLYLDEYDKVVLKNYQEMVVEGCGCR | 409 ± 39 nM | – |
| BMP-2 (ligand) QAKHKQRKRLKSSCKRHPLYVDFSDVGWNDWIVAPPGYHAFYCHGECPFPLADHLNSTNHAIVQTLVNSVNSKIPKACCVPTELSAISMLYLDENEKVVLKNYQDMVVEGCGCR | 488 ± 37 nM | > 10 fold |
